From US20250255972A1, “METHOD OF TREATING UVEITIS WITH MULTIVALENT PROTEIN-HYALURONIC ACID POLYMER CONJUGATE” (Valitor, Inc., priority 2022, published 2025)

Target: T1, Human IL-1β, Fc tagged (Acro Biosystems ILA-H525c) (human, UniProt P01584 117-269)
T1 construct: Bought BLI ligand, loaded on anti-human Fc probes; also called BLI ligand; not shown: Fc tag
Assay: BLI (Gator), Fc-tagged IL-1β on anti-human Fc probes, conjugate as analyte, 1:1 global fit

- Kd: 0.353 nM
B1: (SEQ ID NO:106)+HyA (850 kDa) conjugate #9, valency 15 (other)
scFv: EIVMTQSPSTLSASVGDRVIITCQASQSIDNWLSWYQQKPGKAPKLLIYRASTLASGVPSRFSGSGSGAEFTLTISSLQPDDFATYYCQNTGGGVSIAFGQGTKLTVLGGGGGSGGGGSGGGGSGGGGSEVQLVESGGGLVQPGGSLRLSCTASGFSLSSAAMAWVRQAPGKGLEWVGIIYDSASTYYASWAKGRFTISRDTSKNTVYLQMNSLRAEDTAVYYCARERAIFSGDFVLWGQGTLVTVSSSPSTPPTPSPSTPPGGC
modifications: C-terminal cysteine thiol of the rigid peptide linker joined through the EMCH organic linker to hyaluronic acid
